This series can be described thus: soluble on expression in E. coli; label from the status in PepcDB or PDB records.
On to “MAHHHHHHSLIISSLTNPNFKVGLPKVIAEVCDYLNTLDLNALENGRHDINDQIYMNVMEPETAEPSSKKAELHHEYLDVQVLIRGTENIEVGATYPNLSKYEDYNEADDYQLCADIDDKFTVTMKPKMFAVFYPYEPHKPCCVVNGKTEKIKKLVVKVPVKLIEG”, for which the “soluble on expression in E. coli” value was “not soluble”.

Turning to “MPLTPADVHNVAFNKPPIGKRGYNEDEVDQFLDLVEDALVQFQEENEDLKQQVEELEAQVAGGTSSAASSSTAGAATAAASKSVDEAALRKEIEEKLRSEYASKLDDASKAAQKAQNDAKSAQDQLQRAQADAKAARDEAEKAKAEAKSAASSSTTKAAAVGAVGAGTGAAVATGAANVDTHMQAAKVLGLAQEMADRLTSEARSESKSMLDEAREAAEKQIEEANSTSNRTLEDARANAEKQIAEAQNRADTLVNEADAKAKNLVSEAEKKSAATLAASTSRAEAQIRQAEDKANALQADAERKHTETMAAVKEQQNALETRIAELQTFEREYRTRLKSLLEGQLEELNARGSSAPTNNKPSGE”, the “soluble on expression in E. coli” value is recorded as “not soluble”. As for “MGSDKIHHHHHHMIEITHGDILRADTEAIVNTVNCVGVMGRGIALQFKKAWPDNFKAYAAACNSKNVQPGKMFIFETGQLANPRFIINFPTKRHWKGASRIEDIESGLVALVADIQRLGIKSIAIPPLGAGLGGLDWLVVRDKIEAAMQPLTDVQILLYEPAGAPQNDRIAKQKEVPKMTAGRAVLIELMQRYLKGLLDPTVSLLEVHKLLYFMQEAGEPLRLKYEKAHYGPYAQNLRHVLNAIEGHFISGYADGGDKPEKELRLVPGAVKEAQEFLEQHPDTRERFTKVSELVEGFESPLGLELLATVHWLNKYEHVRSTDQVIESVHSWNTRKQLFTARQITIAEKVLARQNWLSA”, the “soluble on expression in E. coli” value was “not soluble”. Next, “SLTAAENIQEQLYPAPIKTVEEGSPAARAGVRPGDVLLRVNGQPVTDVLAYRHQLERGVVTLEVARPHEAPRVMTGVAGTAQDHHRLMLPQPPSLDETLTFTVEWEDPGLDFEEVLFDGIKKCANKCDFCYVHQMPRGFRKSLYIMDDDYRLSFLYGSFVTLTNLTEGDINRILDENLSPLYVSVHTANQDLRQDMMKWWKLKVKDPQAVQIREMIERLESIDLYTQIVLVPERNDRENLDETVEYLSSRPNVISAAVVPIGLTAHRTNLPDVRTFTPEEAQDTLRRLNVWRRKFLAERGTRFIFPSDELYLLAGEPLPTEEEYEGFPMLENGVGMIRDFLTEALPPLPAALPEPRKVILGTGLLFADSLARAIEPLRQIEGLDIEVRAIENKTFGKVTTVAGLLTGRCFRHAVQPGEADLLIVPPTTLRYGTELMIDDTSLGELRRELKMDVRAGGATLGELARVVLEGAQSSGHQFGMSAHAVKDSGRDDVAPSASRAQGGAAPEESLEEDVAESGMHGRGQA”: “soluble”. Consider “MSLGDLEQKIIAMDLWHLALPVVSARDHGIGRVEGSCEIVVLRLVAEGGAEGFGEASPWAVFTGTPEASYAALDRYLRPLVIGRRVGDRVAIMDEAARAVAHCTEAKAALDSALLDLAGRISNLPVWALLGGKCRDTIPLSCSIANPDFDADIALMERLRADGVGLIKLKTGFRDHAFDIMRLELIARDFPEFRVRVDYNQGLEIDEAVPRVLDVAQFQPDFIEQPVRAHHFELMARLRGLTDVPLLADESVYGPEDMVRAAHEGICDGVSIKIMKSGGLTRAQTVARIAAAHGLMAYGGDMFEAGLAHLAGTHMIAATPEITLGCEFYQASYFLNEDILETPFRVEAGQVIVPDGPGLGARADPEKLEHYAVRRSGEGHHHHHH”, for which the “soluble on expression in E. coli” value is reported as “soluble”. Next, “MSQEQLVAVNELNENLGKVLIKIARDSIANKLGILKINLEDYLSSLNDPILNKKGLAFVTLETYYGNSTSLRGCIGYVEAVAPLKEIVSKAAIAAAFSDPRFPPLSKGEFDNIIIEVTVLTKPQEIDVENRWELPKKIKVGEDGLIVEYGILYSGLLLPQVPMEYCWDEETFLAETCIKAGLEPDCWLNNKVKIKKFQGIIFREEKPKSEKILIIKPSEVKCKKEEISLL”: “soluble”.

Regarding “MQMLDRLESEILADRVSEESRRWLASCGLTVEQMKNQMDPVYTPARKIHLYHCDHRGLPLALISTEGATAWCAEYDEWGNLLSDENPHHLQQLIRLPGQQYDEESGLYYNRHRYYDPLLGRYITQDPIGLKGGWNFYQYPLNPVINVDPQGLVDINLYPESDLIHSVADEINIPGVFTIGGHGTPTSIESATRSIMTAKDLAYLIKFDGNYKDGMTVWLFSCNTGKGQNSFAS”, the “soluble on expression in E. coli” value is on record as “soluble”.
